The text below walks through data of the Immune Epitope Database (IEDB).

The target of this test is HLA-B*07:02. The test is described as follows: IEDB peptide-MHC binding, purified MHC/competitive/fluorescence; ≥ and ≤ were set here for values at or beyond the usual limits of such assays. The following applies: source organism: Homo sapiens.

pIC50: −log10 of the molar value.

A word on the pIC50: it is the IC50 on a negative log10 scale, so that one unit is a factor of ten. High values mean a low IC50, low ones a high IC50. Regarding AARPATSTL, the pIC50 is 6.68.
In turn, APAYSRAL had a pIC50 of 6.67.
In turn, APKRPPSAF showed a pIC50 of 6.75.
GPRTAALGLL: the pIC50 is 6.59.
For IATVDSYVI, the pIC50 was not above 3.66.
LPTSHPKIV showed a pIC50 of 5.45.
Sequence NPNQNKNVAL had a negative-log IC50 (pIC50) of 5.80.
Consider RPYSNVSNL, for which the pIC50 is 6.64.
Then SPNQARAQAAL, with 6.03; and STTAICATGL, with not above 3.61.
Then TPQSNRPVM, with 6.33.
